Positions count from the first letter of the chain named. Numbers in names are those of the source.
B1: murine monoclonal antibody LA-2, wild type (antibody, V domains shown)
VH: QIQLVQSGPELKKPGETVKISCKASGYTFTDYSMYWVKQAPGKGLKRMGWINTETGEPTYADDFKGRFALSLDTSASTAYLHISNLKNEDTATYFCARGLDSWGQGTSVTVSS
VL: DIQMTQSPSSLSATLGGKVTITCKASQDINKYIAWYQHKPGKGPRLLIHYTSTLQPGNPSRFSGSGSGRDYSFSISNLEAEDIAIYYCLQYDNLQRTFGGGTKVEIK
B2: LA-2 H49A-Light (antibody, V domains shown)
VH: B1 VH
VL: B1 VL with H49A

How the values were obtained:
[1] = target: murine monoclonal antibody LA-2, wild type (mouse); experiment: SPR
[2] = target: Outer surface protein A (OspA) from Borrelia burgdorferi B31, wild type (Borrelia burgdorferi B31, UniProt P0CL66); experiment: SPR

Molecule	fold increase of affinity against wild type OspA [1]	binding result [2]
OspA (B. burgdorferi B31) A215K (from UniProt P0CL66 17-273) (natural protein)	7.5 fold	
B1		binds
B2		no binding

From article PMC5383521 (Journal of molecular recognition : JMR, 2016)
